According to patent publication US20230183753A1, “Methods of in Vitro Cell Delivery” (Intellia Therapeutics, Inc., priority 2020, published 2023):
Oligonucleotides are written 5' to 3', each unit as a sugar letter and its base; * is a phosphorothioate linkage, no mark a phosphodiester; rarer units and linkages stand in square brackets, end groups in braces. Plain capitals give the bases only. m = 2'-O-methyl; r = 2'-OH (RNA)

Assays:
B2M, CD3, MHC II = test: Flow cytometry of antigen negative T cells (B2M, CD3, MHC II) after BC22n or Cas9 editing, Example 16A; type: cell-based, human
Text: Cells were subsequently washed, processed on a Cytoflex instrument (Beckman Coulter) and analyzed using the FlowJo software package. T cells were gated based on size, shape, viability, and antigen expression.

[1] = tested on: B2M, TRAC, TRBC1/2, CIITA; test: NGS editing profile of T cells with BC22n or Cas9 mRNA, single or four guides, LNP titration, Example 16A; type: cell-based, human; details: LNP;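 further: activated T cells exposed to LNPs 72 h after activation, kept at 37 °C, harvested on day 10 post activation, editing measured by NGS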
Experimental: Cells were expanded in T cell basal media for 72 hours prior to LNP transfection.
LNPs were mixed to fixed total mRNA weight ratios of 6:3:2 for editor mRNA, guide RNA, and UGI mRNA respectively as described in Table 12. […] LNP mixtures were incubated for 5 minutes at 37° C. in T cell basal media substituting 6% cynomolgus monkey serum (Bioreclamation IVT, Cat. CYN220760) for fetal bovine serum.
T cells were incubated at 37° C. with 5% CO2 for the duration of the experiment.
In total, T cells were exposed to 6 different LNPs simultaneously (editor mRNA, UGI mRNA, 4 guides).

[2] = multiple guide delivery (four guides simultaneously), locus of the guide assayed, editor BC22n, total RNA 8.6 ng
[3] = multiple guide delivery (four guides simultaneously), locus of the guide assayed, editor BC22n, total RNA 17.2 ng
[4] = multiple guide delivery (four guides simultaneously), locus of the guide assayed, editor BC22n, total RNA 34.4 ng
[5] = multiple guide delivery (four guides simultaneously), locus of the guide assayed, editor BC22n, total RNA 68.8 ng
[6] = multiple guide delivery (four guides simultaneously), locus of the guide assayed, editor BC22n, total RNA 137.5 ng
[7] = multiple guide delivery (four guides simultaneously), locus of the guide assayed, editor BC22n, total RNA 275.0 ng
[8] = multiple guide delivery (four guides simultaneously), locus of the guide assayed, editor BC22n, total RNA 550.0 ng
[9] = multiple guide delivery (four guides simultaneously), locus of the guide assayed, editor Cas9, total RNA 8.6 ng
[10] = multiple guide delivery (four guides simultaneously), locus of the guide assayed, editor Cas9, total RNA 17.2 ng
[11] = multiple guide delivery (four guides simultaneously), locus of the guide assayed, editor Cas9, total RNA 34.4 ng
[12] = multiple guide delivery (four guides simultaneously), locus of the guide assayed, editor Cas9, total RNA 68.8 ng
[13] = multiple guide delivery (four guides simultaneously), locus of the guide assayed, editor Cas9, total RNA 137.5 ng
[14] = multiple guide delivery (four guides simultaneously), locus of the guide assayed, editor Cas9, total RNA 275.0 ng
[15] = multiple guide delivery (four guides simultaneously), locus of the guide assayed, editor Cas9, total RNA 550.0 ng
[16] = single guide delivery, editor BC22n, total RNA 8.6 ng
[17] = single guide delivery, editor BC22n, total RNA 17.2 ng
[18] = single guide delivery, editor BC22n, total RNA 34.4 ng
[19] = single guide delivery, editor BC22n, total RNA 68.8 ng
[20] = single guide delivery, editor BC22n, total RNA 137.5 ng
[21] = single guide delivery, editor BC22n, total RNA 275.0 ng
[22] = single guide delivery, editor BC22n, total RNA 550.0 ng
[23] = single guide delivery, editor Cas9, total RNA 8.6 ng
[24] = single guide delivery, editor Cas9, total RNA 17.2 ng
[25] = single guide delivery, editor Cas9, total RNA 34.4 ng
[26] = single guide delivery, editor Cas9, total RNA 68.8 ng
[27] = single guide delivery, editor Cas9, total RNA 137.5 ng
[28] = single guide delivery, editor Cas9, total RNA 275.0 ng
[29] = single guide delivery, editor Cas9, total RNA 550.0 ng

B1: G018117: guide targeting CIITA (SEQ ID NO: 714) (nucleic acid)
guide: mG*mC*mG*rUrCrCrArCrArUrCrCrUrGrCrArArGrGrGrGrUrUrUrUrArGrAmGmCmUmAmGmAmAmAmUmAmGmCrArArGrUrUrArArArArUrArArGrGrCrUrArGrUrCrCrGrUrUrArUrCrAmAmCmUmUmGmAmAmAmAmAmGmUmGmGmCmAmCmCmGmAmGmUmCmGmGmUmGmCmU*mU*mU*mU
percent cells negative for antigen, HLA DR DP DQ neg, Mean % (B2M, CD3, MHC II; editor BC22n, total RNA 8.6 ng): 41.6% | percent cells negative for antigen, HLA DR DP DQ neg, Mean % (B2M, CD3, MHC II; editor BC22n, total RNA 17.2 ng): 49.9% | percent cells negative for antigen, HLA DR DP DQ neg, Mean % (B2M, CD3, MHC II; editor BC22n, total RNA 34.4 ng): 65.8% | percent cells negative for antigen, HLA DR DP DQ neg, Mean % (B2M, CD3, MHC II; editor BC22n, total RNA 68.8 ng): 74.5% | percent cells negative for antigen, HLA DR DP DQ neg, Mean % (B2M, CD3, MHC II; editor BC22n, total RNA 137.5 ng): 85.2% | percent cells negative for antigen, HLA DR DP DQ neg, Mean % (B2M, CD3, MHC II; editor BC22n, total RNA 275.0 ng): 92.5% | percent cells negative for antigen, HLA DR DP DQ neg, Mean % (B2M, CD3, MHC II; editor BC22n, total RNA 550.0 ng): 95.7% | percent cells negative for antigen, HLA DR DP DQ neg, Mean % (B2M, CD3, MHC II; editor Cas9, total RNA 8.6 ng): 34.2% | percent cells negative for antigen, HLA DR DP DQ neg, Mean % (B2M, CD3, MHC II; editor Cas9, total RNA 17.2 ng): 36.2% | percent cells negative for antigen, HLA DR DP DQ neg, Mean % (B2M, CD3, MHC II; editor Cas9, total RNA 34.4 ng): 40.7% | percent cells negative for antigen, HLA DR DP DQ neg, Mean % (B2M, CD3, MHC II; editor Cas9, total RNA 68.8 ng): 48.9% | percent cells negative for antigen, HLA DR DP DQ neg, Mean % (B2M, CD3, MHC II; editor Cas9, total RNA 137.5 ng): 55.5% | percent cells negative for antigen, HLA DR DP DQ neg, Mean % (B2M, CD3, MHC II; editor Cas9, total RNA 275.0 ng): 65.6% | percent cells negative for antigen, HLA DR DP DQ neg, Mean % (B2M, CD3, MHC II; editor Cas9, total RNA 550.0 ng): 72.0% | C-to-A/G % mean [1, 2]: 3.1% | C-to-T % mean [1, 2]: 4.6% | Indel % mean [1, 2]: 0.8% | C-to-A/G % mean [1, 3]: 2.9% | C-to-T % mean [1, 3]: 10.5% | Indel % mean [1, 3]: 1.1% | C-to-A/G % mean [1, 4]: 2.9% | C-to-T % mean [1, 4]: 18.8% | Indel % mean [1, 4]: 1.6% | C-to-A/G % mean [1, 5]: 2.7% | C-to-T % mean [1, 5]: 35.1% | Indel % mean [1, 5]: 1.6% | C-to-A/G % mean [1, 6]: 2.9% | C-to-T % mean [1, 6]: 52.9% | Indel % mean [1, 6]: 1.5% | C-to-A/G % mean [1, 7]: 2.5% | C-to-T % mean [1, 7]: 71.9% | Indel % mean [1, 7]: 1.3% | C-to-A/G % mean [1, 8]: 2.6% | C-to-T % mean [1, 8]: 81.1% | Indel % mean [1, 8]: 1.1% | C-to-A/G % mean [1, 9]: 2.6% | C-to-T % mean [1, 9]: 0.2% | Indel % mean [1, 9]: 1.4% | C-to-A/G % mean [1, 10]: 2.5% | C-to-T % mean [1, 10]: 0.2% | Indel % mean [1, 10]: 2.1% | C-to-A/G % mean [1, 11]: 2.5% | C-to-T % mean [1, 11]: 0.3% | Indel % mean [1, 11]: 3.9% | C-to-A/G % mean [1, 12]: 2.5% | C-to-T % mean [1, 12]: 0.2% | Indel % mean [1, 12]: 7.7% | C-to-A/G % mean [1, 13]: 2.2% | C-to-T % mean [1, 13]: 0.2% | Indel % mean [1, 13]: 13.3% | C-to-A/G % mean [1, 14]: 1.9% | C-to-T % mean [1, 14]: 0.1% | Indel % mean [1, 14]: 26.7% | C-to-A/G % mean [1, 15]: 1.7% | C-to-T % mean [1, 15]: 0.1% | Indel % mean [1, 15]: 42.3% | C-to-A/G % mean [1, 16]: 3.8% | C-to-T % mean [1, 16]: 14.5% | Indel % mean [1, 16]: 3.5% | C-to-A/G % mean [1, 17]: 3.5% | C-to-T % mean [1, 17]: 28.1% | Indel % mean [1, 17]: 3.9% | C-to-A/G % mean [1, 18]: 3.3% | C-to-T % mean [1, 18]: 45.9% | Indel % mean [1, 18]: 3.6% | C-to-A/G % mean [1, 19]: 3.6% | C-to-T % mean [1, 19]: 62.8% | Indel % mean [1, 19]: 3.7% | C-to-A/G % mean [1, 20]: 2.7% | C-to-T % mean [1, 20]: 78.9% | Indel % mean [1, 20]: 2.7% | C-to-A/G % mean [1, 21]: 2.6% | C-to-T % mean [1, 21]: 86.3% | Indel % mean [1, 21]: 2.0% | C-to-A/G % mean [1, 22]: 2.6% | C-to-T % mean [1, 22]: 92.3% | Indel % mean [1, 22]: 1.1% | C-to-A/G % mean [1, 23]: 2.5% | C-to-T % mean [1, 23]: 0.3% | Indel % mean [1, 23]: 6.0% | C-to-A/G % mean [1, 24]: 2.4% | C-to-T % mean [1, 24]: 0.2% | Indel % mean [1, 24]: 11.2% | C-to-A/G % mean [1, 25]: 2.1% | C-to-T % mean [1, 25]: 0.2% | Indel % mean [1, 25]: 20.8% | C-to-A/G % mean [1, 26]: 1.9% | C-to-T % mean [1, 26]: 0.2% | Indel % mean [1, 26]: 33.2% | C-to-A/G % mean [1, 27]: 1.3% | C-to-T % mean [1, 27]: 0.1% | Indel % mean [1, 27]: 51.2% | C-to-A/G % mean [1, 28]: 0.9% | C-to-T % mean [1, 28]: 0.1% | Indel % mean [1, 28]: 64.5% | C-to-A/G % mean [1, 29]: 0.6% | C-to-T % mean [1, 29]: 0.1% | Indel % mean [1, 29]: 78.4%
